The results in this text go back to US20110177084A1 (RIKEN, published 2011).

One assay concerns the target T1, hIgG1 Fc (Ig) (human, UniProt P01857-1 99-330 = IgG part, limits assumed).
T1 construct: domain: hIgG1 Fc; Control for Ig-Mincle; also called control Ig
Nature of the assay: pull-down from 2B4 dead cell lysate with Ig on Protein G Sepharose, silver staining, no Ca2+.

For assay [1], the target named is T2, mouse Mincle (Macrophage inducible C-type lectin) (mouse, UniProt Q9R0Q8 1-214).
T2 construct: whole, on cells; Expressed from cDNA in 293T, 2B4 and RBL-2H3 cells, or endogenous in mouse peritoneal macrophages; also called Clec4e; Clecsf9
T2 sequence (looked up): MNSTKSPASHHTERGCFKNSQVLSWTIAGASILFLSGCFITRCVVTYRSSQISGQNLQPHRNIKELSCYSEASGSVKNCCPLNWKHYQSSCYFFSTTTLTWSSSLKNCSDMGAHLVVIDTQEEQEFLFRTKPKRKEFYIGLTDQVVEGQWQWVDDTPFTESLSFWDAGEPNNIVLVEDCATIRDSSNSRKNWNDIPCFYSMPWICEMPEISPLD
The assay is described as follows: immunoprecipitation with anti-Mincle polyclonal antibody from macrophage lysate, anti-FcRγ blot.

The target in assay [2] is T3, High mobility group box 1 (HMGB1) (UniProt P63158 1-215).
T3 sequence (looked up): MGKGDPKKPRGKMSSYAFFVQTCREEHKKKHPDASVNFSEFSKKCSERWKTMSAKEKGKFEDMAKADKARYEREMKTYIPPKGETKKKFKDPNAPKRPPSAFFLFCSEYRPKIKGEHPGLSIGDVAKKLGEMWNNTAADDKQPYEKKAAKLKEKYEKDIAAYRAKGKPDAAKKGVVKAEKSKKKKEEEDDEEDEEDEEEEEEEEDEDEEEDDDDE
The assay is described as follows: pull-down from 2B4 cell lysate, immunoblot with anti-HMGB1. (In general: Immunoblotting shows a protein as a band on a membrane.)

Assay [3] deals with damaged-DNA binding protein 1 (DDB1) (UniProt Q3U1J4 2-1140). Nature of the assay: pull-down from 2B4 dead cell lysate, immunoblot with anti-DDB1.
Chain of damaged-DNA binding protein 1 (DDB1) (Q3U1J4 2-1140 limits assumed): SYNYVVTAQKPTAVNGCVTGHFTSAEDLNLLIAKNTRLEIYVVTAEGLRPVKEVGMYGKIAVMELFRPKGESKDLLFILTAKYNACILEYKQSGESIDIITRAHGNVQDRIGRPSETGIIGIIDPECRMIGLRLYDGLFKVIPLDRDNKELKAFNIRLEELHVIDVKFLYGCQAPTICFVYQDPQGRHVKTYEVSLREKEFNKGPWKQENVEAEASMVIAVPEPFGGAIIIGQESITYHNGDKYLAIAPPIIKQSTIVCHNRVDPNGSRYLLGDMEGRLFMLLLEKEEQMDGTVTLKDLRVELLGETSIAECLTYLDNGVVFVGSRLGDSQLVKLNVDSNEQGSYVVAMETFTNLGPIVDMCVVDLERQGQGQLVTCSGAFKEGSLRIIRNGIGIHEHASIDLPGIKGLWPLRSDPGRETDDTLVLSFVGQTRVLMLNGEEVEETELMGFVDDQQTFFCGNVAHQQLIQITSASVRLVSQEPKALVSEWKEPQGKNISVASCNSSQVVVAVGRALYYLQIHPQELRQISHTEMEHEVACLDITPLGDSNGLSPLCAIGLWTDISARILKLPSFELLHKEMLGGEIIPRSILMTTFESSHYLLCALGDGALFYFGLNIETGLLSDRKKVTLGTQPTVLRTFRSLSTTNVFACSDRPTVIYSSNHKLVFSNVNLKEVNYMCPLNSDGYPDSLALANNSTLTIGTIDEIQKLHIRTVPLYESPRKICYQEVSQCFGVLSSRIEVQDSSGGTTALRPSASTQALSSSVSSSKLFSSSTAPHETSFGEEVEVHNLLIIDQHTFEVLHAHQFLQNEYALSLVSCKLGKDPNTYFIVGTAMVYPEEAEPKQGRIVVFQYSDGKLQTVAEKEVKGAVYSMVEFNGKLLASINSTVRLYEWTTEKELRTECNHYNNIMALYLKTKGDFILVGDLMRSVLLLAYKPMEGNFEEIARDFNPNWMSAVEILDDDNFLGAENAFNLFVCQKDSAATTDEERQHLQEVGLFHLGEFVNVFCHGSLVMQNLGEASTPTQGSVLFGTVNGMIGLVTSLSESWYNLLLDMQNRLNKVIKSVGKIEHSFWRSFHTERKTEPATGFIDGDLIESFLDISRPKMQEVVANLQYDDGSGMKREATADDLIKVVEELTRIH

B1: spliceosome-binding protein 130 (SAP130) from 2B4 cell lysate (ligand, UniProt Q921M3 1-1217, looked up)
chain: MFLYNLTLQRATGISFAIHGNFSGTKQQEIVVSRGKILELLRPDPNTGKVHTLLTVEVFGVIRSLMAFRLTGGTKDYIVVGSDSGRIVILEYQPSKNMFEKIHQETFGKSGCRRIVPGQFLAVDPKGRAVMISAIEKQKLVYILNRDAAARLTISSPLEAHKANTLVYHVVGVDVGFENPMFACLEMDYEEADNDPTGEAAANTQQTLTFYELDLGLNHVVRKYSEPLEEHGNFLITVPGGSDGPSGVLICSENYITYKNFGDQPDIRCPIPRRRNDLDDPERGMIFVCSATHKTKSMFFFLAQTEQGDIFKITLETDEDMVTEIRLKYFDTVPVAAAMCVLKTGFLFVASEFGNHYLYQIAHLGDDDEEPEFSSAMPLEEGDTFFFQPRPLKNLVLVDELDSLSPILFCQIADLANEDTPQLYVACGRGPRSSLRVLRHGLEVSEMAVSELPGNPNAVWTVRRHIEDEFDAYIIVSFVNATLVLSIGETVEEVTDSGFLGTTPTLSCSLLGDDALVQVYPDGIRHIRADKRVNEWKTPGKKTIVKCAVNQRQVVIALTGGELVYFEMDPSGQLNEYTERKEMSADVVCMSLANVPPGEQRSRFLAVGLVDNTVRIISLDPSDCLQPLSMQALPAQPESLCIVEMGGTEKQDELGERGSIGFLYLNIGLQNGVLLRTVLDPVTGDLSDTRTRYLGSRPVKLFRVRMQGQEAVLAMSSRSWLSYSYQSRFHLTPLSYETLEFASGFASEQCPEGIVAISTNTLRILALEKLGAVFNQVAFPLQYTPRKFVIHPESNNLIIIETDHNAYTEATKAQRKQQMAEEMVEAAGEDERELAAEMAAAFLNENLPESIFGAPKAGNGQWASVIRVMNPIQGNTLDLVQLEQNEAAFSVAVCRFSNTGEDWYVLVGVAKDLILSPRSVAGGFVYTYKLVNNGEKLEFLHKTPVEEVPAAIAPFQGRVLIGVGKLLRVYDLGKKKLLRKCENKHIANYISGIQTIGHRVIVSDVQESFIWVRYKRNENQLIIFADDTYPRWVTTASLLDYDTVAGADKFGNICVVRLPPNTNDEVDEDPTGNKALWDRGLLNGASQKAEVIMNYHVGETVLSLQKTTLIPGGSESLVYTTLSGGIGILVPFTSHEDHDFFQHVEMHLRSEHPPLCGRDHLSFRSYYFPVKNVIDGDLCEQFNSMEPNKQKNVSEELDRTPPEVSKKLEDIRTRYAF
notes: also called Sf3b3; 130-kD protein
Consider B1, for which the binding result with hIgG1 Fc (Ig) is “no binding”.

B2: endogenous FcRγ of mouse peritoneal macrophages (receptor, UniProt P20491 19-86, looked up)
chain: LGEPQLCYILDAVLFLYGIVLTLLYCRLKIQVRKAAIASREKADAVYTGLNTRSQETYETLKHEKPPQ
notes: whole, on cells; Co-immunoprecipitated from the lysate of thioglycolate-induced, LPS-stimulated peritoneal macrophages
As to B2, in assay [1], the binding result was “binds”.

B3: hIgG1 Fc-Mincle fusion protein (Ig-Mincle) (Fc fusion, mouse, UniProt Q9R0Q8 46-214, looked up)
chain: TYRSSQISGQNLQPHRNIKELSCYSEASGSVKNCCPLNWKHYQSSCYFFSTTTLTWSSSLKNCSDMGAHLVVIDTQEEQEFLFRTKPKRKEFYIGLTDQVVEGQWQWVDDTPFTESLSFWDAGEPNNIVLVEDCATIRDSSNSRKNWNDIPCFYSMPWICEMPEISPLD
notes: range 46-214; also called soluble Mincle protein; not shown: human IgG1 Fc region (hIgG Fc lacking a termination codon, from pME18S-SLAMsig-hIgG Fc)
With B3, the binding result in assay [2] and in assay [3] was “no binding” throughout.
